Measured values published in patent WO2013059531A1 (dated 2013).

Legend:
[1] = molecular target: solubilized, full length GCGR, biotinylated (from baculovirus particles) (Homo sapiens (Human)) (UniProt P47871); test: Octet BLI kinetics, biotinylated solubilized full length GCGR on streptavidin tips, Fab in solution
[2] = molecular target: T1, GCGR (glucagon receptor) on primary human hepatocytes (human, UniProt P47871 26-477); test: competition with 3 nM 125I-glucagon on primary human hepatocytes, gamma counting
T1 construct: Endogenous receptor on primary human hepatocytes (Celsis)
T1 sequence (P47871 26-477 limits assumed): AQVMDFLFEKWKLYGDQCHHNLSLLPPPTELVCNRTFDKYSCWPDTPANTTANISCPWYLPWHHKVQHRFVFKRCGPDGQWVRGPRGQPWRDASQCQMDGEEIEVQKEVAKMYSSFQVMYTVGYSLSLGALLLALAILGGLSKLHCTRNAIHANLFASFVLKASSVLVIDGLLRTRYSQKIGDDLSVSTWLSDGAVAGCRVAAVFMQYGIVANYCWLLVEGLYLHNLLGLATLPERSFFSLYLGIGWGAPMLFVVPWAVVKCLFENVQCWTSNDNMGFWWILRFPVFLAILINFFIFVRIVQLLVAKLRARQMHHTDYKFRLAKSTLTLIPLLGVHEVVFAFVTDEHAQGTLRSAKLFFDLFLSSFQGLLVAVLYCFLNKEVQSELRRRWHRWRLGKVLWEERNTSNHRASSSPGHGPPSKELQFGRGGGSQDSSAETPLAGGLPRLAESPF

Sequence of solubilized, full length GCGR, biotinylated (from baculovirus particles) (Homo sapiens (Human)) (P47871 26-477): as the sequence (P47871 26-477 limits assumed) above

fold increase in affinity (Kd) over H6.23v2 [1] [fold] | binding result [2] | Binder
3 |  | H6.23v3 Fab fragment (Fab, V domains shown) VH: EVQLVESGGGLVQPGGSLRLSCAASGFNIYYNYIHWVRQAPGKGLEWVAEFSPYSGSTYYADSVKGRFTISADTSKNTAYLQMNSLRAEDTAVYYCARSAAIVDWYDYFKGFDYWGQGTLVTVSS VL: DIQMTQSPSSLSASVGDRVTITCRASQSVSSAVAWYQQKPGKAPKLLIYSASSLYSGVPSRFSGSRSGTDFTLTISSLQPEDFATYYCQQYGSYLYTFGQGTKVEIK
 | binds | anti-GCGR antibody H6.23v3 (antibody, V domains shown) VH: EVQLVESGGGLVQPGGSLRLSCAASGFNIYYNYIHWVRQAPGKGLEWVAEFSPYSGSTYYADSVKGRFTISADTSKNTAYLQMNSLRAEDTAVYYCARSAAIVDWYDYFKGFDYWGQGTLVTVSS VL: DIQMTQSPSSLSASVGDRVTITCRASQSVSSAVAWYQQKPGKAPKLLIYSASSLYSGVPSRFSGSRSGTDFTLTISSLQPEDFATYYCQQYGSYLYTFGQGTKVEIK
